{"source": "paper PMC8062786", "biological_target": "wild-type SARS-CoV 3CL protease (mature enzyme), as used for analytical ultracentrifugation (SARS-CoV)", "assay": "AUC", "data": [{"substance": "wild-type SARS-CoV 3CL protease (mature enzyme), as used for analytical ultracentrifugation", "values": [{"measurement": "Kd", "value": 0.35, "unit": "nM"}]}]}
